The values below are quoted from earlier work in paper PMC4643947.

As a reminder, the Kd is the concentration at which binding is half-saturated.

The target in series [1] is Nrf2 10mer peptide (Homo sapiens).
The target of series [2] is Nrf2 14mer peptide (Homo sapiens).
Series [3] concerns the target p62 (Homo sapiens) (UniProt Q13501).
Series [4] has the same target. This is another data set of the same source.

Read-outs that look alike come from different tables or passages of the source.

As to Keap1 (from UniProt Q14145), the Kd in series [1] is 30.1 nM; in series [2], 61.9 nM; in series [3] it was 118 nM; in series [4], 2000 nM.
